Substitutions are numbered along the chain they refer to.
Legend:
WRKY3 = WRKY3 (Arabidopsis, UniProt Q9ZQ70 1-513); test: EMSA; not stated; DNA-binding assays as previously described (ref 15); details: protein: recombinant
WRKY4 = WRKY4 (Arabidopsis, UniProt Q9XI90 1-514); test: as above; details: protein: recombinant
WRKY4, sequence (Q9XI90 whole entry): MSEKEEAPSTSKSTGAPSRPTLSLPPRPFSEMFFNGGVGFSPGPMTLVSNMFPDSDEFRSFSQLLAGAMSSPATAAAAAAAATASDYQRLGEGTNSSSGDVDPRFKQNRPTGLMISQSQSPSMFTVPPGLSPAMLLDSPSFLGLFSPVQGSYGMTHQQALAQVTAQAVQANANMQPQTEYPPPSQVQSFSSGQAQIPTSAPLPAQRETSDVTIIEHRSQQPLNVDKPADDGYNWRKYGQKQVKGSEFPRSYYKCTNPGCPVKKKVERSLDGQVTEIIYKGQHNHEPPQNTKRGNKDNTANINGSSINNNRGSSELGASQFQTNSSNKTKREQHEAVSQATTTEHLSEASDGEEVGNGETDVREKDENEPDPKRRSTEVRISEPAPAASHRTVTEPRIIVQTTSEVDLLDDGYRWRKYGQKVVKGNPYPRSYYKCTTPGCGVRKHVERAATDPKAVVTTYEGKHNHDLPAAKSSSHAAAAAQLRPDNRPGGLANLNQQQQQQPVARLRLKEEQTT

WRKY3, sequence (Q9ZQ70 whole entry): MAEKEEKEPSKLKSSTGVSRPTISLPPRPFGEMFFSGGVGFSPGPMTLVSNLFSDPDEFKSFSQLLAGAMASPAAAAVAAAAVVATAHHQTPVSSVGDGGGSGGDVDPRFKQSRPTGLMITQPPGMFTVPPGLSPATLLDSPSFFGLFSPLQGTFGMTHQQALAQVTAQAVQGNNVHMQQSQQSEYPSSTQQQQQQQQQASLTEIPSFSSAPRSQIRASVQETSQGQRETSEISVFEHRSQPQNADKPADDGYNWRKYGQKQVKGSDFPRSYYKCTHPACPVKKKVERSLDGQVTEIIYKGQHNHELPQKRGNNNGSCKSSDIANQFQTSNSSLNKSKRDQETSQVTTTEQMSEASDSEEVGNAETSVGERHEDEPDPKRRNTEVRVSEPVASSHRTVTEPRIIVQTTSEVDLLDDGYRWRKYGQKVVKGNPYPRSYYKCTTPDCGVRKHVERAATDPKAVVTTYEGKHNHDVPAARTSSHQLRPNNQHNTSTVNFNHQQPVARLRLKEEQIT

B1: Pchn0 (dsDNA)
DNA 1: GGAACTTGACCTTGACCTTAGGGCTGCAGGAATTCG
DNA 2: CGAATTCCTGCAGCCCTAAGGTCAAGGTCAAGTTCC
B1: binds (WRKY3); binds (WRKY4).

B2: mPchn0 (dsDNA)
DNA 1: B1 DNA 1 with C10A, C16A
DNA 2: B1 DNA 2 with G21T, G27T
B2: no binding (WRKY3).
